The target of one test is T1, PTPRS ECD-Fc (human, UniProt Q13332 30-1282).
T1 sequence: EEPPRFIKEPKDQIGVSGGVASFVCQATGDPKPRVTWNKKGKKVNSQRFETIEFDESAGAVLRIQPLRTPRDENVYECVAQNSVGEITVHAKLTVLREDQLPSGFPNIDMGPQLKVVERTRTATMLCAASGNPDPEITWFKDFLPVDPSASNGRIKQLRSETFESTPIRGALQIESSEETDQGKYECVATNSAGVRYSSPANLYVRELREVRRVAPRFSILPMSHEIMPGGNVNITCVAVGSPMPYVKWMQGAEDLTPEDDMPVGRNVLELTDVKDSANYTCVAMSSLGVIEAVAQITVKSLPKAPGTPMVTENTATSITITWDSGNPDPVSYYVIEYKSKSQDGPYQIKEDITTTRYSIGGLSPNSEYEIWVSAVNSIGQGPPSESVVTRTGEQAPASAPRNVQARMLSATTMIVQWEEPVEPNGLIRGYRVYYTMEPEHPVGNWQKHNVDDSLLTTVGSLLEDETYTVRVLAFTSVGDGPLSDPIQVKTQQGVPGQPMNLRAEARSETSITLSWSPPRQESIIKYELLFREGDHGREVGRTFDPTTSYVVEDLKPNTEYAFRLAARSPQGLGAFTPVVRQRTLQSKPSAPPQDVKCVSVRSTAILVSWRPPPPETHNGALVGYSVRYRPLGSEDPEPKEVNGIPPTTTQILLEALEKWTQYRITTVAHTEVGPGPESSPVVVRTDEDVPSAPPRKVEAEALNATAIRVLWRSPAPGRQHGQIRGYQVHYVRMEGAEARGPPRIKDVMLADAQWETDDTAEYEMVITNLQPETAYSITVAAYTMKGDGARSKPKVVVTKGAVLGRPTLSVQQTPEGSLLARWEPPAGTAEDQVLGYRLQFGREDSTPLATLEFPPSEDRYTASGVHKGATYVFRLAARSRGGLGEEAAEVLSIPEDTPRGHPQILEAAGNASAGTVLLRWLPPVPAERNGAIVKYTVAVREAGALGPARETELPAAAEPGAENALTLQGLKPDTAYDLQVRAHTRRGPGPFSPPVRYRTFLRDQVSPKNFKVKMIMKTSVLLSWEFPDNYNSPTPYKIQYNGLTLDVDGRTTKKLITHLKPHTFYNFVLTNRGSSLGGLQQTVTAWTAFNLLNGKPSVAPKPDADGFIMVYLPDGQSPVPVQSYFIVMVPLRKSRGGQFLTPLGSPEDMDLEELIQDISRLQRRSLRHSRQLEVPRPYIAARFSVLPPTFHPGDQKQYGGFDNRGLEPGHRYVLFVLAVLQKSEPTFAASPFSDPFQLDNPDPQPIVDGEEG
Nature of the test: SPR.

In a further test the target is T2, PRTG ECD-Fc (human, UniProt Q2VWP7 36-949).
T2 sequence: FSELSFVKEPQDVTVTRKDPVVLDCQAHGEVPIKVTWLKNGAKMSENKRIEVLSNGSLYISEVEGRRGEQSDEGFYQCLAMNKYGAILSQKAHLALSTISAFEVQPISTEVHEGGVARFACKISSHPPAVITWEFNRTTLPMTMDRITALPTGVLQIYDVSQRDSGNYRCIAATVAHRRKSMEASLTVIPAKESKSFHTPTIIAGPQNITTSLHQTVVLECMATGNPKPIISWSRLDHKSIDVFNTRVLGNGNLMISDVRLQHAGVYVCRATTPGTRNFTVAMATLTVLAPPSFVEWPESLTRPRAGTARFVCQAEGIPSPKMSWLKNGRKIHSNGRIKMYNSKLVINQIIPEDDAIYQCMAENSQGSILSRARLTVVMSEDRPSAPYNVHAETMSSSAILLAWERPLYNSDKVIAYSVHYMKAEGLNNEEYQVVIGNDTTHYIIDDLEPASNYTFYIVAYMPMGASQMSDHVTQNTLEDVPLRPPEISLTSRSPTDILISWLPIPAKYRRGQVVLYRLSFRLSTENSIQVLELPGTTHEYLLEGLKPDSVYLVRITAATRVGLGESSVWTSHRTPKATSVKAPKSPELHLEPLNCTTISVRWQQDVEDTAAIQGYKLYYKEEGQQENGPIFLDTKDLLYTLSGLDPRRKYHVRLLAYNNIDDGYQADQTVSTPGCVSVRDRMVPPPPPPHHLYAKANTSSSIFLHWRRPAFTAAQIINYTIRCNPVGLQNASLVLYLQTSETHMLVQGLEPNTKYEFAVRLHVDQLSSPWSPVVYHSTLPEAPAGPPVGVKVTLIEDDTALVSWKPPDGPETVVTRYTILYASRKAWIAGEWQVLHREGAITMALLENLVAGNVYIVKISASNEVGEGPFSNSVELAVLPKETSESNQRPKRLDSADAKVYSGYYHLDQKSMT
Kind of test: SPR. For orientation: In SPR one partner is held on a chip, and binding of the other changes the refractive index at the surface.

Here are results for three molecules from article PMC7440162 (Cell, 2020).

B1: IL1RAPL1 ECD-Fc (Fc fusion)
chain: LKVVTKRGSADGCTDWSIDIKKYQVLVGEPVRIKCALFYGYIRTNYSLAQSAGLSLMWYKSSGPGDFEEPIAFDGSRMSKEEDSIWFRPTLLQDSGLYACVIRNSTYCMKVSISLTVGENDTGLCYNSKMKYFEKAELSKSKEISCRDIEDFLLPTREPEILWYKECRTKTWRPSIVFKRDTLLIREVREDDIGNYTCELKYGGFVVRRTTELTVTAPLTDKPPKLLYPMESKLTIQETQLGDSANLTCRAFFGYSGDVSPLIYWMKGEKFIEDLDENRVWESDIRILKEHLGEQEVSISLIVDSVEEGDLGNYSCYVENGNGRRHASVLLHKRELMYT
modifications: biotin on the AviTag (as SPR ligand)
As for B1, in the test with PTPRS ECD-Fc, the binding result is on record as “binds”.

B2: ICAM5 ECD-Fc (Fc fusion)
chain: EPFWADLQPRVAFVERGGSLWLNCSTNCPRPERGGLETSLRRNGTQRGLRWLARQLVDIREPETQPVCFFRCARRTLQARGLIRTFQRPDRVELMPLPPWQPVGENFTLSCRVPGAGPRASLTLTLLRGAQELIRRSFAGEPPRARGAVLTATVLARREDHGANFSCRAELDLRPHGLGLFENSSAPRELRTFSLSPDAPRLAAPRLLEVGSERPVSCTLDGLFPASEARVYLALGDQNLSPDVTLEGDAFVATATATASAEQEGARQLVCNVTLGGENRETRENVTIYSFPAPLLTLSEPSVSEGQMVTVTCAAGAQALVTLEGVPAAVPGQPAQLQLNATENDDRRSFFCDATLDVDGETLIKNRSAELRVLYAPRLDDSDCPRSWTWPEGPEQTLRCEARGNPEPSVHCARSDGGAVLALGLLGPVTRALSGTYRCKAANDQGEAVKDVTLTVEYAPALDSVGCPERITWLEGTEASLSCVAHGVPPPDVICVRSGELGAVIEGLLRVAREHAGTYRCEATNPRGSAAKNVAVTVEYGPRFEEPSCPSNWTWVEGSGRLFSCEVDGKPQPSVKCVGSGGATEGVLLPLAPPDPSPRAPRIPRVLAPGIYVCNATNRHGSVAKTVVVSAESPPEMDESTCPSHQTWLEGAEASALACAARGRPSPGVRCSREGIPWPEQQRVSREDAGTYHCVATNAHGTDSRTVTVGVEYRPVVAELAASPPGGVRPGGNFTLTCRAEAWPPAQISWRAPPGALNIGLSSNNSTLSVAGAMGSHGGEYECAATNAHGRHARRITVRVAGPW
modifications: biotin on the AviTag (as SPR ligand)
As to B2, the binding result with PRTG ECD-Fc is given as “binds”.

B3: LTF-Fc (Fc fusion)
chain: GRRRSVQWCAVSQPEATKCFQWQRNMRKVRGPPVSCIKRDSPIQCIQAIAENRADAVTLDGGFIYEAGLAPYKLRPVAAEVYGTERQPRTHYYAVAVVKKGGSFQLNELQGLKSCHTGLRRTAGWNVPIGTLRPFLNWTGPPEPIEAAVARFFSASCVPGADKGQFPNLCRLCAGTGENKCAFSSQEPYFSYSGAFKCLRDGAGDVAFIRESTVFEDLSDEAERDEYELLCPDNTRKPVDKFKDCHLARVPSHAVVARSVNGKEDAIWNLLRQAQEKFGKDKSPKFQLFGSPSGQKDLLFKDSAIGFSRVPPRIDSGLYLGSGYFTAIQNLRKSEEEVAARRARVVWCAVGEQELRKCNQWSGLSEGSVTCSSASTTEDCIALVLKGEADAMSLDGGYVYTAGKCGLVPVLAENYKSQQSSDPDPNCVDRPVEGYLAVAVVRRSDTSLTWNSVKGKKSCHTAVDRTAGWNIPMGLLFNQTGSCKFDEYFSQSCAPGSDPRSNLCALCIGDEQGENKCVPNSNERYYGYTGAFRCLAENAGDVAFVKDVTVLQNTDGNNNEAWAKDLKLADFALLCLDGKRKPVTEARSCHLAMAPNHAVVSRMDKVERLKQVLLHQQAKFGRNGSDCPDKFCLFQSETKNLLFNDNTECLARLHGKTTYEKYLGPQYVAGITNLKKCSTSPLLEACEFLRK
modifications: biotin on the AviTag (as SPR ligand)
B3: the binding result with PRTG ECD-Fc is “binds”.
